Reference: patent publication US20160272683A1 (Novo Nordisk, published 2016)
Numbered stars: 1 amine (or outer) side, 2 acyl side, 3 side chain; on linkers, the order of the positions; unused ones are H or OH. Side chains are listed from the residue outwards. Ends that are not written are not given here. * marks the point of attachment. C20 diacid = O=C(O)CCCCCCCCCCCCCCCCCCC(=O)*; C18 diacid = O=C(O)CCCCCCCCCCCCCCCCC(=O)*; γGlu = O=C(O)[C@H](CCC(=O)[*:2])N[*:1]; AEEA = NCCOCCOCC(=O)O

T1: human calcitonin receptor (human, UniProt P30988 25-474)
T1 construct: whole, on cells; also called hCT-R; hCTR
T1 sequence (looked up): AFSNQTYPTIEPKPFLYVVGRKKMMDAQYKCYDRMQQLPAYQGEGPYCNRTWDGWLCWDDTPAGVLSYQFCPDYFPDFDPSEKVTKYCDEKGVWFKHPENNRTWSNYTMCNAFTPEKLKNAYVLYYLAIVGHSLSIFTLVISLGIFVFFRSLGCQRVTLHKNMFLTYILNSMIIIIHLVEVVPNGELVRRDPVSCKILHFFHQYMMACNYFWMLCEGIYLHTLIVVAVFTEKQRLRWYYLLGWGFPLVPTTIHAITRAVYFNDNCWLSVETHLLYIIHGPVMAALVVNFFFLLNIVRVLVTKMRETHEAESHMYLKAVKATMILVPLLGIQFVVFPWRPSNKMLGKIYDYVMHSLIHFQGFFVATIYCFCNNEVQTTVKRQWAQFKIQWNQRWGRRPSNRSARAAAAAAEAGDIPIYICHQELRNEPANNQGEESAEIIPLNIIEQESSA

T2: human calcitonin receptor (human, UniProt P30988 25-474)
T2 construct: whole, on cells; Assay VII: membranes on SPA beads; also called hCT-R; hCTR
T2 sequence (looked up): T1 sequence (looked up)

T3: human amylin receptor (amylin 3(a) receptor: human calcitonin receptor with RAMP-3) (human, UniProt P30988 25-474; O60896 24-148, limits assumed)
T3 construct: whole, on cells; Assay V: membranes of the Amylin 3(a)/CRE-luc BHK cells on SPA beads; also called hAmylin-R
T3 sequence (looked up) 1: T1 sequence (looked up)
T3 sequence (looked up) 2: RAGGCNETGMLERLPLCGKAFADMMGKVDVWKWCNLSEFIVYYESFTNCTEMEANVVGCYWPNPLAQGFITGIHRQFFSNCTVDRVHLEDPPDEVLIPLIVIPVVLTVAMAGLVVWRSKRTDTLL

B1: [N-terminal(C20 diacid-gGlu), des1, 4Q, 9V, 15Q, 16R, 19R, 21Q, 23Y, 27Q, 30S, 31Q, 32T, 33Y]mimylin (peptide)
peptide: {C20 diacid-γGlu}-ASQLSTAVLGRLSQRLHRLQTYPRTQTGSQTY-NH2
SMILES: CC(C)C[C@H](NC(=O)[C@H](CCCNC(=N)N)NC(=O)CNC(=O)[C@H](CC(C)C)NC(=O)[C@@H](NC(=O)[C@H](C)NC(=O)[C@@H](NC(=O)[C@H](CO)NC(=O)[C@H](CC(C)C)NC(=O)[C@H](CCC(N)=O)NC(=O)[C@H](CO)NC(=O)[C@H](C)NC(=O)CC[C@H](NC(=O)CCCCCCCCCCCCCCCCCCC(=O)O)C(=O)O)[C@@H](C)O)C(C)C)C(=O)N[C@@H](CO)C(=O)N[C@@H](CCC(N)=O)C(=O)N[C@@H](CCCNC(=N)N)C(=O)N[C@@H](CC(C)C)C(=O)N[C@@H](Cc1c[nH]cn1)C(=O)N[C@@H](CCCNC(=N)N)C(=O)N[C@@H](CC(C)C)C(=O)N[C@@H](CCC(N)=O)C(=O)N[C@H](C(=O)N[C@@H](Cc1ccc(O)cc1)C(=O)N1CCC[C@H]1C(=O)N[C@@H](CCCNC(=N)N)C(=O)N[C@H](C(=O)N[C@@H](CCC(N)=O)C(=O)N[C@H](C(=O)NCC(=O)N[C@@H](CO)C(=O)N[C@@H](CCC(N)=O)C(=O)N[C@H](C(=O)N[C@@H](Cc1ccc(O)cc1)C(N)=O)[C@@H](C)O)[C@@H](C)O)[C@@H](C)O)[C@@H](C)O
notes: also called Ex. #132
B2: [N-terminal(C20 diacid-gGlu), des1, 2L, 4Q, 8L, 9V, 15Q, 16R, 19R, 21Q, 23Y, 27Q, 30S, 31Q, 32T, 33Y]mimylin (peptide)
peptide: {C20 diacid-γGlu}-LSQLSTLVLGRLSQRLHRLQTYPRTQTGSQTY-NH2
SMILES: CC(C)C[C@H](NC(=O)CC[C@H](NC(=O)CCCCCCCCCCCCCCCCCCC(=O)O)C(=O)O)C(=O)N[C@@H](CO)C(=O)N[C@@H](CCC(N)=O)C(=O)N[C@@H](CC(C)C)C(=O)N[C@@H](CO)C(=O)N[C@H](C(=O)N[C@@H](CC(C)C)C(=O)N[C@H](C(=O)N[C@@H](CC(C)C)C(=O)NCC(=O)N[C@@H](CCCNC(=N)N)C(=O)N[C@@H](CC(C)C)C(=O)N[C@@H](CO)C(=O)N[C@@H](CCC(N)=O)C(=O)N[C@@H](CCCNC(=N)N)C(=O)N[C@@H](CC(C)C)C(=O)N[C@@H](Cc1c[nH]cn1)C(=O)N[C@@H](CCCNC(=N)N)C(=O)N[C@@H](CC(C)C)C(=O)N[C@@H](CCC(N)=O)C(=O)N[C@H](C(=O)N[C@@H](Cc1ccc(O)cc1)C(=O)N1CCC[C@H]1C(=O)N[C@@H](CCCNC(=N)N)C(=O)N[C@H](C(=O)N[C@@H](CCC(N)=O)C(=O)N[C@H](C(=O)NCC(=O)N[C@@H](CO)C(=O)N[C@@H](CCC(N)=O)C(=O)N[C@H](C(=O)N[C@@H](Cc1ccc(O)cc1)C(N)=O)[C@@H](C)O)[C@@H](C)O)[C@@H](C)O)[C@@H](C)O)C(C)C)[C@@H](C)O
notes: also called Ex. #133
B3: [des1, 4G, 15Q, 21Q, 23Y, 30S, 31K(C20 diacid-gGlu), 32T, 33Y]mimylin (peptide)
peptide: ASGLSTAALGRLSQELHELQTYPRTETGSK([γGlu-C20 diacid])TY-NH2
modifications: N-terminus assumed
SMILES: CC(C)C[C@H](NC(=O)CNC(=O)[C@H](CO)NC(=O)[C@H](C)N)C(=O)N[C@@H](CO)C(=O)N[C@H](C(=O)N[C@@H](C)C(=O)N[C@@H](C)C(=O)N[C@@H](CC(C)C)C(=O)NCC(=O)N[C@@H](CCCNC(=N)N)C(=O)N[C@@H](CC(C)C)C(=O)N[C@@H](CO)C(=O)N[C@@H](CCC(N)=O)C(=O)N[C@@H](CCC(=O)O)C(=O)N[C@@H](CC(C)C)C(=O)N[C@@H](Cc1c[nH]cn1)C(=O)N[C@@H](CCC(=O)O)C(=O)N[C@@H](CC(C)C)C(=O)N[C@@H](CCC(N)=O)C(=O)N[C@H](C(=O)N[C@@H](Cc1ccc(O)cc1)C(=O)N1CCC[C@H]1C(=O)N[C@@H](CCCNC(=N)N)C(=O)N[C@H](C(=O)N[C@@H](CCC(=O)O)C(=O)N[C@H](C(=O)NCC(=O)N[C@@H](CO)C(=O)N[C@@H](CCCCNC(=O)CC[C@H](NC(=O)CCCCCCCCCCCCCCCCCCC(=O)O)C(=O)O)C(=O)N[C@H](C(=O)N[C@@H](Cc1ccc(O)cc1)C(N)=O)[C@@H](C)O)[C@@H](C)O)[C@@H](C)O)[C@@H](C)O)[C@@H](C)O
B4: [N-terminal(C20 diacid-gGlu-OEG), des1, 30S, 31G]mimylin (peptide)
peptide: {C20 diacid-γGlu-AEEA}-ASELSTAALGRLSAELHELATLPRTETGSGSP-NH2
notes: mimylin derivative; des1 = residue 1 deleted; also called Ex. #41; 41
B5: [N-terminal(C20 diacid-gGlu), 4Q, 9V, 15Q, 21Q, 23Y, 27G, 30S, 31G, 32T, 33Y]mimylin (peptide)
peptide: {C20 diacid-γGlu}-EASQLSTAVLGRLSQELHELQTYPRTGTGSGTY-NH2
SMILES: CC(C)C[C@H](NC(=O)[C@H](CCCNC(=N)N)NC(=O)CNC(=O)[C@H](CC(C)C)NC(=O)[C@@H](NC(=O)[C@H](C)NC(=O)[C@@H](NC(=O)[C@H](CO)NC(=O)[C@H](CC(C)C)NC(=O)[C@H](CCC(N)=O)NC(=O)[C@H](CO)NC(=O)[C@H](C)NC(=O)[C@H](CCC(=O)O)NC(=O)CC[C@H](NC(=O)CCCCCCCCCCCCCCCCCCC(=O)O)C(=O)O)[C@@H](C)O)C(C)C)C(=O)N[C@@H](CO)C(=O)N[C@@H](CCC(N)=O)C(=O)N[C@@H](CCC(=O)O)C(=O)N[C@@H](CC(C)C)C(=O)N[C@@H](Cc1c[nH]cn1)C(=O)N[C@@H](CCC(=O)O)C(=O)N[C@@H](CC(C)C)C(=O)N[C@@H](CCC(N)=O)C(=O)N[C@H](C(=O)N[C@@H](Cc1ccc(O)cc1)C(=O)N1CCC[C@H]1C(=O)N[C@@H](CCCNC(=N)N)C(=O)N[C@H](C(=O)NCC(=O)N[C@H](C(=O)NCC(=O)N[C@@H](CO)C(=O)NCC(=O)N[C@H](C(=O)N[C@@H](Cc1ccc(O)cc1)C(N)=O)[C@@H](C)O)[C@@H](C)O)[C@@H](C)O)[C@@H](C)O
B6: [N-terminal(C20 diacid-gGlu), 2L, 4G, 8L, 9V, 15Q, 21Q, 23Y, 27G, 30S, 31G, 32T, 33Y]mimylin (peptide)
peptide: {C20 diacid-γGlu}-ELSGLSTLVLGRLSQELHELQTYPRTGTGSGTY-NH2
SMILES: CC(C)C[C@H](NC(=O)CNC(=O)[C@H](CO)NC(=O)[C@H](CC(C)C)NC(=O)[C@H](CCC(=O)O)NC(=O)CC[C@H](NC(=O)CCCCCCCCCCCCCCCCCCC(=O)O)C(=O)O)C(=O)N[C@@H](CO)C(=O)N[C@H](C(=O)N[C@@H](CC(C)C)C(=O)N[C@H](C(=O)N[C@@H](CC(C)C)C(=O)NCC(=O)N[C@@H](CCCNC(=N)N)C(=O)N[C@@H](CC(C)C)C(=O)N[C@@H](CO)C(=O)N[C@@H](CCC(N)=O)C(=O)N[C@@H](CCC(=O)O)C(=O)N[C@@H](CC(C)C)C(=O)N[C@@H](Cc1c[nH]cn1)C(=O)N[C@@H](CCC(=O)O)C(=O)N[C@@H](CC(C)C)C(=O)N[C@@H](CCC(N)=O)C(=O)N[C@H](C(=O)N[C@@H](Cc1ccc(O)cc1)C(=O)N1CCC[C@H]1C(=O)N[C@@H](CCCNC(=N)N)C(=O)N[C@H](C(=O)NCC(=O)N[C@H](C(=O)NCC(=O)N[C@@H](CO)C(=O)NCC(=O)N[C@H](C(=O)N[C@@H](Cc1ccc(O)cc1)C(N)=O)[C@@H](C)O)[C@@H](C)O)[C@@H](C)O)[C@@H](C)O)C(C)C)[C@@H](C)O

Legend:
[1] = target: T1, human calcitonin receptor; assay: whole-cell competition vs 125I-human calcitonin (Assay VIIa)
How it was run: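 BHK tk'ts 13 cells stably co-expressing human calcitonin receptor and a CRE-luciferase reporter, seeded overnight at 37 °C. Bound tracer counted by scintillation after cold HBSS washes and NaOH/SDS lysis; IC₅₀ from one-site competition fit taken as receptor affinity.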

[2] = target: T2, human calcitonin receptor; assay: SPA competition vs 125I-calcitonin, membranes with human CTR (Assay VII)
Protocol: The binding assay was performed using scintillation proximity assay (SPA) beads (RPNQ0001) from PerkinElmer® and cell membranes prepared from a BHK tk'ts 13 cell line was stably transfected with the human calcitonin receptor and a CRE-responsive luciferase reporter gene. Membranes were prepared in the following way; the cells were rinsed with PBS and incubated with Versene for approximately 5 min before harvesting. The cells were flushed with PBS and the cell-suspension was centrifuged for 5 min at 1000 rpm.
(§1) EDTA (pH 7.4, buffer 2). The resulting pellet was resuspended in buffer 2 and protein concentration was tested (BCA protein Assay, Pierce). The homogenate was kept cold during the whole procedure. The membranes were kept at −80° C. until use. Assay was performed in a 384 well Optiplate (PerkinElmer®) in a total volume of 40 ul. Membranes were mixed with SPA beads. Final concentration of membranes 35 ng/μL final and Final concentration of SPA beads was 0.05 mg/well. Test-compounds were dissolved in DMSO and further diluted in assay buffer (50 mM Hepes, pH 7.4, 1 mM CaCl2, 5 mM MgCl2, 0.1% OA and 0.02% Tween20). […] Samples were analyzed on TopCounter™ (Packard). The IC₅₀ was calculated using (one site binding competition analysis) GraphPad Prism5 as a measure of receptor affinity.

[3] = target: T3, human amylin receptor (amylin 3(a) …); assay: SPA competition vs 125I-rat amylin, membranes with human CTR + RAMP-3 (Assay V)
Protocol: as §1, with “The binding assay was performed using scintillation proximity assay (SPA) beads (RPNQ0001) from PerkinElmer and cell membranes from the Amylin 3(a)/CRE-luc cells (as described in Assay (II)) were used. Membranes were prepared in the following way; the cells were rinsed with PBS and incubated with Versene for approximately 5 min before harvesting. The cells were flushed with PBS and the cell-suspension was centrifuged for 5 min at 1000 rpm. […] The” for “EDTA (pH 7.4, buffer 2). The”, “use. The assay” for “use. Assay”, “Optiplate (PerkinElmer)” for “Optiplate (PerkinElmer®)”, “and” for “and Final concentration of”

| IC50 [1] [nM] | IC50 [2] [nM] | IC50 [3] [nM] | Binder |
| --- | --- | --- | --- |
| 630 |  |  | EASELSTAALGRLSAELHELATLPRTETGPESP-OH (also called Ex. #135) [[C-terminal(-)]mimylin] |
| 1.55 |  |  | B1 |
| 9.66 |  |  | B2 |
| 1.27 |  |  | B3 |
|  | 0.085 | 0.141 | B4 |
| 0.796 |  |  | B5 |
| 3.62 |  |  | B6 |
| 42.4 |  |  | {C18 diacid}-EASELSTAALGRLSAELHELATLPRTETGPESP-OH [[N-terminal(C18 diacid), C-terminal(-)]mimylin] |
